B1: Meiosis-inducing protein 1 (Saccharomyces cerevisiae), P21190 (parent)
chain: MQADMHGKLHAALEDGFFLFPFEQQQQPNIYYDTTTDQEDRPCFSFGSTISPRSWHFEKSDKIASSQLQNLVHTQPIHLINPQILFNEEFLNLENIDSQPISKETKTTKDCTMATGPERGKKSSESTRSSSLSSLFSNDESASTFHSSFNNHDNFQKSNRNGDDIDISDTIKYETNTNAQKDIKIFQENFEFNEFPYTQDFYPYTTNYTYSKPTNIHESINSKNTDSYSQYQDQFPPHTDNIHSFNNRHYSNHKSTNCNYYNNTSNNNNASDNVYEADPFIDEPQVPSYYYPLEIAFDVEKSPPPSLQKLNSKELEFLKKLNSKLSRYAAAYSFSSSNDQDYYDKVRFQEISYKFSKTYS
partner: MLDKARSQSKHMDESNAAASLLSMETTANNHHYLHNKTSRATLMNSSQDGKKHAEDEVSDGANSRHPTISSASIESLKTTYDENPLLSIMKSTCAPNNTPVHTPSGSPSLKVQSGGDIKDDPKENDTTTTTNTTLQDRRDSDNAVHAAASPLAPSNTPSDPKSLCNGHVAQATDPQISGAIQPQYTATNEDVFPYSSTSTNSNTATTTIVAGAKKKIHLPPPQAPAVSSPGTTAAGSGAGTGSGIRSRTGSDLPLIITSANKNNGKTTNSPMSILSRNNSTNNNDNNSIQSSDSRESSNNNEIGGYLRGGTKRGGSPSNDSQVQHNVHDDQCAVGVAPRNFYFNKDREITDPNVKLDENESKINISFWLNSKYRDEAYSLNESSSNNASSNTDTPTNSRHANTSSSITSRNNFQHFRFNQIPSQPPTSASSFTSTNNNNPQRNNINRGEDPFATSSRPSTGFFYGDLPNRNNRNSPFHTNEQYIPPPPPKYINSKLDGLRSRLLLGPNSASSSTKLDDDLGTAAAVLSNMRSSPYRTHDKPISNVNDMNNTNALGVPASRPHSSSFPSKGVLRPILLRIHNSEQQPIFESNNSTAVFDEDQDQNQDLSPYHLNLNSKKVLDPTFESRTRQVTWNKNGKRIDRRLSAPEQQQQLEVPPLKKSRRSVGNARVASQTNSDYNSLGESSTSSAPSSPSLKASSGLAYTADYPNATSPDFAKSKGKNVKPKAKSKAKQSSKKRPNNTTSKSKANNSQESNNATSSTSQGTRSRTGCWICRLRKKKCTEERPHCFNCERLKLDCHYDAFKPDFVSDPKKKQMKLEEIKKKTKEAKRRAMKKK

Variants of B1 are the subject of this assay. The following applies: with ume6_yeast UME6, P39001.
For MQADMHGKLHAALEDGFFLFPFEQQQQPNIYYDTTTDQEDRPCFSFGSTISPRSWHFEKSDKIASSQLQNLVHTQPIHLINPQILFNEEFLNLENIDSQPISKETKTTKDCTMATGPERGKKSSESTRSSSLSSLFSNDESASTFHSSFNNHDNFQKSNRNGDDIDISDTIKYETNTNAQKDIKIFQENFEFNEFPYTQDFYPYTTNYTYSKPTNIHESINSKNTDSYSQYQDQFPPHTDNIHSFNNRHYSNHKSTNCNYYNNTSNNNNASDNVYEADPFIDEPQVPSYYYPLEIAFDVEKSPPPSLQKLNSKELEFLKKLNSKLSRYAAAYSFSSSNDQDYYDKVRFQEIAYKFAKTYA [S352A;S356A;S360A], the “effect of a mutation on the interaction” value is reported as “with no effect”.

For the variant MQADMHGKLHAALEDGFFLFPFEQQQQPNIYYDTTTDQEDRPCFSFGSTISPRSWHFEKSDKIASSQLQNLVHTQPIHLINPQILFNEEFLNLENIDSQPISKETKTTKDCTMATGPERGKKSSESTRSSSLSSLFSNDESASTFHSSFNNHDNFQKSNRNGDDIDISDTIKYETNTNAQKDIKIFQENFEFNEFPYTQDFYPYTTNYTYSKPTNIHESINSKNTDSYSQYQDQFPPHTDNIHSFNNRHYSNHKSTNCNYYNNTSNNNNASDNVYEADPFIDEPQVPSYYYPLEIAFDVEKSPPPALQKLNSKELEFLKKLNSKLSRYAAAYSFSSSNDQDYYDKVRFQEISYKFSKTYS [S306A], the “effect of a mutation on the interaction” value is reported as “with no effect”.

Regarding MQADMHGKLHAALEDGFFLFPFEQQQQPNIYYDTTTDQEDRPCFSFGSTISPRSWHFEKSDKIASSQLQNLVHTQPIHLINPQILFNEEFLNLENIDSQPISKETKTTKDCTMATGPERGKKSSESTRSSSLSSLFSNDESASTFHSSFNNHDNFQKSNRNGDDIDISDTIKYETNTNAQKDIKIFQENFEFNEFPYTQDFYPYTTNYTYSKPTNIHESINSKNTDSYSQYQDQFPPHTDNIHSFNNRHYSNHKSTNCNYYNNTSNNNNASDNVYEADPFIDEPQVPSYYYPLEIAFDVEKSPPPSLQKLNSKELEFLKKLNSKLSRYAAAYSFSSSNDQDYYDKVRFQEISYKFSKTFS [Y359F], the “effect of a mutation on the interaction” value is “decreasing interaction strength”.

For MQADMHGKLHAALEDGFFLFPFEQQQQPNIYYDTTTDQEDRPCFSFGSTISPRSWHFEKSDKIASSQLQNLVHTQPIHLINPQILFNEEFLNLENIDSQPISKETKTTKDCTMATGPERGKKSSESTRSSSLSSLFSNDESASTFHSSFNNHDNFQKSNRNGDDIDISDTIKYETNTNAQKDIKIFQENFEFNEFPYTQDFYPYTTNYTYSKPTNIHESINSKNTDSYSQYQDQFPPHTDNIHSFNNRHYSNHKSTNCNYYNNTSNNNNASDNVYEADPFIDEPQVPSYYYPLEIAFDVEKSPPPSLQKLNSKELEFLKKLNSKLSRYAAAYAFSSSNDQDYYDKVRFQEISYKFSKTYS [S333A], the “effect of a mutation on the interaction” value was “with no effect”.

MQADMHGKLHAALEDGFFLFPFEQQQQPNIYYDTTTDQEDRPCFSFGSTISPRSWHFEKSDKIASSQLQNLVHTQPIHLINPQILFNEEFLNLENIDSQPISKETKTTKDCTMATGPERGKKSSESTRSSSLSSLFSNDESASTFHSSFNNHDNFQKSNRNGDDIDISDTIKYETNTNAQKDIKIFQENFEFNEFPYTQDFYPYTTNYTYSKPTNIHESINSKNTDSYSQYQDQFPPHTDNIHSFNNRHYSNHKSTNCNYYNNTSNNNNASDNVYEADPFIDEPQVPSYYYPLEIAFDVEKSPPPSLQKLNSKELEFLKKLNSKLSRYAAAYSFSSANDQDYYDKVRFQEISYKFSKTYS [S337A]: the “effect of a mutation on the interaction” value is “with no effect”.

As to MQADMHGKLHAALEDGFFLFPFEQQQQPNIYYDTTTDQEDRPCFSFGSTISPRSWHFEKSDKIASSQLQNLVHTQPIHLINPQILFNEEFLNLENIDSQPISKETKTTKDCTMATGPERGKKSSESTRSSSLSSLFSNDESASTFHSSFNNHDNFQKSNRNGDDIDISDTIKYETNTNAQKDIKIFQENFEFNEFPYTQDFYPYTTNYTYSKPTNIHESINSKNTDSYSQYQDQFPPHTDNIHSFNNRHYSNHKSTNCNYYNNTSNNNNASDNVYEADPFIDEPQVPSYYYPLEIAFDVEKDPPPSLQKLNSKELEFLKKLNSKLSRYAAAYSFSSSNDQDYYDKVRFQEISYKFSKTYS [S302D], the “effect of a mutation on the interaction” value was “with no effect”.

Turning to MQADMHGKLHAALEDGFFLFPFEQQQQPNIYYDTTTDQEDRPCFSFGSTISPRSWHFEKSDKIASSQLQNLVHTQPIHLINPQILFNEEFLNLENIDSQPISKETKTTKDCTMATGPERGKKSSESTRSSSLSSLFSNDESASTFHSSFNNHDNFQKSNRNGDDIDISDTIKYETNTNAQKDIKIFQENFEFNEFPYTQDFYPYTTNYTYSKPTNIHESINSKNTDSYSQYQDQFPPHTDNIHSFNNRHYSNHKSTNCNYYNNTSNNNNASDNVYEADPFIDEPQVPSYYYPLEIAFDVEKAPPPSLQKLNSKELEFLKKLNSKLSRYAAAYSFSSSNDQDYYDKVRFQEISYKFSKTYS [S302A], the “effect of a mutation on the interaction” value is reported as “with no effect”.
